The RNAGym collection of RNA variant scans (doi:10.7554/elife.80360)

B1: HDV Ribozyme (parent)
chain: GGCCGGCAUGGUCCCAGCCUCCUCGCUGGCGCCGGCUGGGCAACAUUCCGAGGGGACCGUCCCCUCGGUAAUGGCGAAUGGGACCCA

Variants of: B1
Assay: self-cleavage, relative activity (ratio to wild type); higher = more cleavage; co-transcriptional

Row | Variant | self-cleavage
1 | GGCCGGCAUGGUCCCAGCCUCCUCGCUGGCGGCAGCUGGGCAACAUUCCGAGGGGACCGUCCCCUCGGUAAUGGCGAAUGGGACCCA [C32G G34A] | 0.0875
2 | GGCCGGCAUGGUCCCAGCCUCCUCGCUGGCGGCUGCUGGGCAACAUUCCGAGGGGACCGUCCCCUCGGUAAUGGCGAAUGGGACCCA [C32G G34U] | 0.0415
3 | GGCCGGCAUGGUCCCAGCCUCCUCGCUGGCUCCGGCUGGGCAACAUUCCGAGGGGACCGUCCCCUCGGUAACGGCGAAUGGGACCCA [G31U U72C] | 0.163
4 | GGCCGGCAUGGUCCCAGCCUCCUCGCUGGCUCCGGCUGGGCAACAUUCCGAGGGGACCGUCCCCUCGGUAAUGGCGAACGGGACCCA [G31U U79C] | 0.107
5 | GGCCGGCAUGGUCCCAGCCUCCUCGCUGGCGACGGCUGGGCAACAUUCCGAGGGGACCGUCCCCUCGGUAAUGGCGAAUGGCACCCA [C32A G82C] | 0.0396
6 | GGCCGGCAUGGUCCCAGCCUCCUCGCUGGCUCCGGCUGGGCAACAUUCCGAGGGGACCGUCCCCUCGGUAAUGGCUAAUGGGACCCA [G31U G76U] | 0.585
7 | GGCCGGCAUGGUCCCAGCCUCCUCGCUGGCGACGGCUGGGCAACAUUCCGAGGGGACCGUCCCCUCGGUAAUGGCGAAUGGGACCGA [C32A C86G] | 0.243
8 | GGCCGGCAUGGUCCCAGCCUCCUCGCUGGCGACGGCUUGGCAACAUUCCGAGGGGACCGUCCCCUCGGUAAUGGCGAAUGGGACCCA [C32A G38U] | 0.181
9 | GGCCGGCAUGGUCCCAGCCUCCUCGCUGGCUCCGGCUGGGCAACAUUCCGAGGGGACCGUCCCCUCGGAAAUGGCGAAUGGGACCCA [G31U U69A] | 0.511
10 | GGCCGGCAUGGUCCCAGCCUCCUCGCUGGCGACGGAUGGGCAACAUUCCGAGGGGACCGUCCCCUCGGUAAUGGCGAAUGGGACCCA [C32A C36A] | 0
11 | GGCCGGCAUGGUCCCAGCCUCCUCGCUGGCGACGGUUGGGCAACAUUCCGAGGGGACCGUCCCCUCGGUAAUGGCGAAUGGGACCCA [C32A C36U] | 0.0733
12 | GGCCGGCAUGGUCCCAGCCUCCUCGCUGGCGACGGGUGGGCAACAUUCCGAGGGGACCGUCCCCUCGGUAAUGGCGAAUGGGACCCA [C32A C36G] | 0.162
13 | GGCCGGCAUGGUCCCAGCCUCCUCGCUGGCUCCGGCUGGGCAACAUUCCGAGGGGACCGUCCCCCCGGUAAUGGCGAAUGGGACCCA [G31U U65C] | 0.339
14 | GGCCGGCAUGGUCCCAGCCUCCUCGCUGGCGACGGCUGGGCAACAUUCCGAGGGGACCGUCCCCUCGGUAAUGUCGAAUGGGACCCA [C32A G74U] | 0.117
15 | GGCCGGCAUGGUCCCAGCCUCCUCGCUGGCUCCGGCUGGGCAACAUUCCGAGGGGACCGUCCCCUCGGUAAUGGCGAAUGUGACCCA [G31U G81U] | 0.23
16 | GGCCGGCAUGGUCCCAGCCUCCUCGCUGGCGACGGCUGGGCAACAUUCCGAGGGGACCGACCCCUCGGUAAUGGCGAAUGGGACCCA [C32A U60A] | 0.252
17 | GGCCGGCAUGGUCCCAGCCUCCUCGCUGGCGACGGCUGGGCAACAUUCCGAGGGGACCGCCCCCUCGGUAAUGGCGAAUGGGACCCA [C32A U60C] | 0.213
18 | GGCCGGCAUGGUCCCAGCCUCCUCGCUGGCGGCGGCUGGGCAGCAUUCCGAGGGGACCGUCCCCUCGGUAAUGGCGAAUGGGACCCA [C32G A43G] | 0.0489
19 | GGCCGGCAUGGUCCCAGCCUCCUCGCUGGCGGCGGAUGGGCAACAUUCCGAGGGGACCGUCCCCUCGGUAAUGGCGAAUGGGACCCA [C32G C36A] | 0.125
20 | GGCCGGCAUGGUCCCAGCCUCCUCGCUGGCGGCGGCUGGGCAACAUUCCGAGGGGACUGUCCCCUCGGUAAUGGCGAAUGGGACCCA [C32G C58U] | 0.0234
21 | GGCCGGCAUGGUCCCAGCCUCCUCGCUGGCGGCGGCUGGGCAACAUUCCGAGGGGACGGUCCCCUCGGUAAUGGCGAAUGGGACCCA [C32G C58G] | 0.0773
22 | GGCCGGCAUGGUCCCAGCCUCCUCGCUGGCUCCGGCUGGGCAACAUGCCGAGGGGACCGUCCCCUCGGUAAUGGCGAAUGGGACCCA [G31U U47G] | 0.32

Row | Variant | self-cleavage
23 | GGCCGGCAUGGUCCCAGCCUCCUCGCUGGCGACGGCUGGGCAACAUUCAGAGGGGACCGUCCCCUCGGUAAUGGCGAAUGGGACCCA [C32A C49A] | 0.415
24 | GGCCGGCAUGGUCCCAGCCUCCUCGCUGGCGGCGGCUGGGCAACAUUCCGAGGGGUCCGUCCCCUCGGUAAUGGCGAAUGGGACCCA [C32G A56U] | 0.0482
25 | GGCCGGCAUGGUCCCAGCCUCCUCGCUGGCUCCGGCGGGGCAACAUUCCGAGGGGACCGUCCCCUCGGUAAUGGCGAAUGGGACCCA [G31U U37G] | 0.107
26 | GGCCGGCAUGGUCCCAGCCUCCUCGCUGGCGACGGCUGGGCAACAUUCCGAGGGGACCGUCCCGUCGGUAAUGGCGAAUGGGACCCA [C32A C64G] | 0.131
27 | GGCCGGCAUGGUCCCAGCCUCCUCGCUGGCGACGGCUGGGCAACAUUCCGAGGGGACCGUCCCAUCGGUAAUGGCGAAUGGGACCCA [C32A C64A] | 0.166
28 | GGCCGGCAUGGUCCCAGCCUCCUCGCUGGCGACGGCUGGGCAACAUUCCGAGGGGACCGUCCCCUCGGUAAUGGAGAAUGGGACCCA [C32A C75A] | 0.0723
29 | GGCCGGCAUGGUCCCAGCCUCCUCGCUGGCGGCGGCUGGGCAACAUUCCGAGGGGACCGUCCCCUCGGUAAUGGAGAAUGGGACCCA [C32G C75A] | 0.154
30 | GGCCGGCAUGGUCCCAGCCUCCUCGCUGGCGACGGCUGGGCAACAUUCCGAGGGGACCGUCCCCUCGGUAAUGGCGAAUGGGAACCA [C32A C84A] | 0
31 | GGCCGGCAUGGUCCCAGCCUCCUCGCUGGCGACGGCUGGGCAACAUUCCGAGGUGACCGUCCCCUCGGUAAUGGCGAAUGGGACCCA [C32A G54U] | 0.102
32 | GGCCGGCAUGGUCCCAGCCUCCUCGCUGGCGACGGCUGGGCAACAUUCCGAGAGGACCGUCCCCUCGGUAAUGGCGAAUGGGACCCA [C32A G53A] | 0.234
33 | GGCCGGCAUGGUCCCAGCCUCCUCGCUGGCGGCGUCUGGGCAACAUUCCGAGGGGACCGUCCCCUCGGUAAUGGCGAAUGGGACCCA [C32G G35U] | 0.0583
34 | GGCCGGCAUGGUCCCAGCCUCCUCGCUGGCGGCGCCUGGGCAACAUUCCGAGGGGACCGUCCCCUCGGUAAUGGCGAAUGGGACCCA [C32G G35C] | 0.0386
35 | GGCCGGCAUGGUCCCAGCCUCCUCGCUGGCGGCGGCUGUGCAACAUUCCGAGGGGACCGUCCCCUCGGUAAUGGCGAAUGGGACCCA [C32G G39U] | 0.0563
36 | GGCCGGCAUGGUCCCAGCCUCCUCGCUGGCGGCGGCUGCGCAACAUUCCGAGGGGACCGUCCCCUCGGUAAUGGCGAAUGGGACCCA [C32G G39C] | 0.116
37 | GGCCGGCAUGGUCCCAGCCUCCUCGCUGGCGGCGGCUGGGCAACAUUCCGAGGGGACCGUCCCGUCGGUAAUGGCGAAUGGGACCCA [C32G C64G] | 0.0405
38 | GGCCGGCAUGGUCCCAGCCUCCUCGCUGGCGACGGCUGGGCAACAUUCCGAGGGGACCGUCCCCUCGGUACUGGCGAAUGGGACCCA [C32A A71C] | 0
39 | GGCCGGCAUGGUCCCAGCCUCCUCGCUGGCGGCGGCUGGGCAACAUUCCGAGGUGACCGUCCCCUCGGUAAUGGCGAAUGGGACCCA [C32G G54U] | 0.153
40 | GGCCGGCAUGGUCCCAGCCUCCUCGCUGGCGACGGCUGGGCAACAUUCCGAGGGGACCGUCCCCUCGGUAAUGGCGAAUGGGACUCA [C32A C85U] | 0.231
41 | GGCCGGCAUGGUCCCAGCCUCCUCGCUGGCGACGGCUGGGCAACAUUCCGAGGGGACCGUCCCCUCGGUAAUGGCGAAUGGGCCCCA [C32A A83C] | 0.0665
42 | GGCCGGCAUGGUCCCAGCCUCCUCGCUGGCGGCGGCUGGGAAACAUUCCGAGGGGACCGUCCCCUCGGUAAUGGCGAAUGGGACCCA [C32G C41A] | 0.0354
43 | GGCCGGCAUGGUCCCAGCCUCCUCGCUGGCGGUGGCUGGGCAACAUUCCGAGGGGACCGUCCCCUCGGUAAUGGCGAAUGGGACCCA [C32G C33U] | 0.115
44 | GGCCGGCAUGGUCCCAGCCUCCUCGCUGGCGACGGCUGGGCAACACUCCGAGGGGACCGUCCCCUCGGUAAUGGCGAAUGGGACCCA [C32A U46C] | 0.128

Row | Variant | self-cleavage
45 | GGCCGGCAUGGUCCCAGCCUCCUCGCUGGCGACGGCUGGGCAACAGUCCGAGGGGACCGUCCCCUCGGUAAUGGCGAAUGGGACCCA [C32A U46G] | 0.138
46 | GGCCGGCAUGGUCCCAGCCUCCUCGCUGGCGACGGCUGGGCAACAUUUCGAGGGGACCGUCCCCUCGGUAAUGGCGAAUGGGACCCA [C32A C48U] | 0.106
47 | GGCCGGCAUGGUCCCAGCCUCCUCGCUGGCGACGGCUGGGCAACAUUCCGAGGGGACCGUCCCCUCGGUAAUGGCGAAGGGGACCCA [C32A U79G] | 0.133
48 | GGCCGGCAUGGUCCCAGCCUCCUCGCUGGCGACGGCUGGGCAACAUUCCGAGGGGACCGUCCCCUCGGUAAUGGCGAACGGGACCCA [C32A U79C] | 0.0733
49 | GGCCGGCAUGGUCCCAGCCUCCUCGCUGGCGGCGGCUGGGCAACAUUCCGCGGGGACCGUCCCCUCGGUAAUGGCGAAUGGGACCCA [C32G A51C] | 0.0489
50 | GGCCGGCAUGGUCCCAGCCUCCUCGCUGGCGGCGGCUGGGCAACAUUCCGGGGGGACCGUCCCCUCGGUAAUGGCGAAUGGGACCCA [C32G A51G] | 0.0665
51 | GGCCGGCAUGGUCCCAGCCUCCUCGCUGGCGGCGGCUGGGCAACAUUCCGACGGGACCGUCCCCUCGGUAAUGGCGAAUGGGACCCA [C32G G52C] | 0.208
52 | GGCCGGCAUGGUCCCAGCCUCCUCGCUGGCGACGGCUGGGCAACAUUCCGAGGGGACCGUCCUCUCGGUAAUGGCGAAUGGGACCCA [C32A C63U] | 0.332
53 | GGCCGGCAUGGUCCCAGCCUCCUCGCUGGCGACGGCUGGGCAACAUUCCGAUGGGACCGUCCCCUCGGUAAUGGCGAAUGGGACCCA [C32A G52U] | 0.134
54 | GGCCGGCAUGGUCCCAGCCUCCUCGCUGGCGGCGGCUGGGCAAGAUUCCGAGGGGACCGUCCCCUCGGUAAUGGCGAAUGGGACCCA [C32G C44G] | 0.0426
55 | GGCCGGCAUGGUCCCAGCCUCCUCGCUGGCGGCGGCUGGGCAACAUUCGGAGGGGACCGUCCCCUCGGUAAUGGCGAAUGGGACCCA [C32G C49G] | 0.135
56 | GGCCGGCAUGGUCCCAGCCUCCUCGCUGGCGACGGCUGGGCAACAUUCCGAGGGGACCGUCCCCGCGGUAAUGGCGAAUGGGACCCA [C32A U65G] | 0.122
57 | GGCCGGCAUGGUCCCAGCCUCCUCGCUGGCGACGGCCGGGCAACAUUCCGAGGGGACCGUCCCCUCGGUAAUGGCGAAUGGGACCCA [C32A U37C] | 0.203
58 | GGCCGGCAUGGUCCCAGCCUCCUCGCUGGCUCCGGCUGGGCAACAGUCCGAGGGGACCGUCCCCUCGGUAAUGGCGAAUGGGACCCA [G31U U46G] | 0.38
59 | GGCCGGCAUGGUCCCAGCCUCCUCGCUGGCUCCGGCUGGGCAACAAUCCGAGGGGACCGUCCCCUCGGUAAUGGCGAAUGGGACCCA [G31U U46A] | 0.0755
60 | GGCCGGCAUGGUCCCAGCCUCCUCGCUGGCGACGCCUGGGCAACAUUCCGAGGGGACCGUCCCCUCGGUAAUGGCGAAUGGGACCCA [C32A G35C] | 0.0405
61 | GGCCGGCAUGGUCCCAGCCUCCUCGCUGGCGGCGGCUUGGCAACAUUCCGAGGGGACCGUCCCCUCGGUAAUGGCGAAUGGGACCCA [C32G G38U] | 0.089
62 | GGCCGGCAUGGUCCCAGCCUCCUCGCUGGCGGCGGCUGGGCAACAUUCCGAGGGGAACGUCCCCUCGGUAAUGGCGAAUGGGACCCA [C32G C57A] | 0.106
63 | GGCCGGCAUGGUCCCAGCCUCCUCGCUGGCGACGGCUGGGCAACAUUCCGAGGGGUCCGUCCCCUCGGUAAUGGCGAAUGGGACCCA [C32A A56U] | 0.369
64 | GGCCGGCAUGGUCCCAGCCUCCUCGCUGGCGACGGCUGGGCAACAUUCCGAGGGGACCGUCCCCUCGGCAAUGGCGAAUGGGACCCA [C32A U69C] | 0.161
